B1: LINE1-mini (parent)
chain: GGCAGAGCUCAACACAGCGUGGCAAAGUGGCUGUGGCUAGACUGCC

The variants in this series derive from B1. Put plainly: self-cleavage, relative activity (ratio to wild type); higher = more cleavage; in vitro, sequencing; the parent is a self-cleaving ribozyme.
With U20A C23A, the self-cleavage worked out at 1.15.
Consider U20A C23U, for which the self-cleavage was 0.8.
In the case of U20A C23G it was 0.69.
The result for G21A U38C reads 1.12.
Regarding G21A U38G, the self-cleavage is 0.03.
In the case of G21A U38A it was 0.89.
In the case of G21A G29A it was 1.
The result for G21A G29U reads 2.19.
Take G21A G29C: the self-cleavage turned out to be 0.63.
The result for U20A G40A reads 0.1.
With U20A G40U, the self-cleavage amounted to 0.08.
The result for U20A G40C reads 0.06; that for G21A A39C, 0.68.
In the case of G21A A39U it was 1.82; in that of G21A A39G, 0.14.
The result for U20G A39U reads 0.56; that for U20G A39G, 0.07; that for U20G A39C, 0.13.
Turning to U20A U38A, the self-cleavage came to 0.43.
For U20A U38G, the self-cleavage was 0.02.
Consider U20A U38C, for which the self-cleavage was determined as 0.41.
In the case of G21A A24G it was 2.26; in that of G21A A24U, 2.52.
The result for G21A A24C reads 1.61; that for U20G A24G, 0.61.
Take U20G A24U: the self-cleavage came out at 0.54.
Turning to U20G A24C, the self-cleavage was determined as 0.28.
Consider G21A C45G, for which the self-cleavage turned out to be 0.26.
In the case of G21A C45A it was 0.97; in that of G21A C45U, 2.04; in that of U20G C42U, 0.17.
In the case of U20G C42A it was 0.1; in that of U20G C42G, 0.14.
As for G19U U34G, the self-cleavage turned out to be 0.16.
In the case of G19U U34A it was 0.13; in that of G19U U34C, 0.17; in that of U20A C31G, 0.08.
U20A C31A: the self-cleavage came to 0.09.
In the case of U20A C31U it was 0.17; in that of U20A C37G, 0.03.
In the case of U20A C37A it was 0.05; in that of U20A C37U, 0.05; in that of G21C, 0.72.
In the case of G21A it was 2.19; in that of G19U U38C, 0.3; in that of G19U U38A, 0.38.
Take G19U U38G: the self-cleavage turned out to be 0.02.
In the case of G21A U32A it was 0.08.
In the case of G21A U32C it was 0.48; in that of G21A U32G, 0.1; in that of G19U U43C, 0.07.
The result for G19U U43G reads 0.02.
As for G19U U43A, the self-cleavage was 0.06.
As to U20C G35U, the self-cleavage was 0.1.
As for U20C G35C, the self-cleavage stood at 0.03.
In the case of U20C G35A it was 0.1; in that of G21A A26U, 1.89; in that of G21A A26G, 1.94.
For G21A A41G, the self-cleavage came out at 0.44.
In the case of G21A A41U it was 0.83; in that of G21A A41C, 0.12; in that of U20A G29A, 0.51.
Take U20A G29U: the self-cleavage amounted to 0.45.
In the case of U20A G29C it was 0.55; in that of U20C C42U, 0.31; in that of U20C C42G, 0.04.
Turning to U20C C42A, the self-cleavage is 0.04.
In the case of U20G C23U it was 0.54; in that of U20G C23G, 0.38.
As to U20G C23A, the self-cleavage turned out to be 0.48.
On to U20G U32A, for which the self-cleavage is 0.07.
In the case of U20G U32C it was 0.06; in that of U20G U32G, 0.09.
The result for U20A G27U reads 0.81.
Regarding U20A G27A, the self-cleavage was found to be 0.83.
In the case of U20A G27C it was 0.24.
G21A C46A: the self-cleavage came out at 1.96.
The result for G21A C46G reads 1.5; that for G21A C46U, 1.39; that for U20A C42U, 0.12.
The result for U20A C42A reads 0.11.
As to U20A C42G, the self-cleavage came to 0.04.
The result for G21A G33A reads 0.08.
The result for G21A G33U reads 0.26.
The result for G21A G33C reads 0.12.
Turning to U20C G36U, the self-cleavage stood at 0.15.
U20C G36C: the self-cleavage amounted to 0.07.
U20C G36A: the self-cleavage amounted to 0.11.
In the case of U20G U28A it was 0.17; in that of U20G U28C, 0.67.
In the case of U20G U28G, the self-cleavage is 0.51.
As to U20A G36C, the self-cleavage came out at 0.07.
The result for U20A G36A reads 0.26.
U20A G36U: the self-cleavage came out at 0.05.
Take U20C G29A: the self-cleavage worked out at 0.55.
For the variant U20C G29C, the self-cleavage was 0.31.
As to U20C G29U, the self-cleavage was 0.4.
Consider U20G G30C, for which the self-cleavage is 0.3.
In the case of U20G G30A, the self-cleavage was found to be 0.66.
As to U20G G30U, the self-cleavage is 0.47.
In the case of G21C A25G it was 0.94; in that of G21C A25U, 1.14; in that of G21C A25C, 0.85.
Regarding G21A U34A, the self-cleavage came to 0.08.
As for G21A U34G, the self-cleavage is 0.64.
Consider G21A U34C, for which the self-cleavage was determined as 0.14.
On to G21A G27A, for which the self-cleavage was found to be 1.01.
On to G21A G27C, for which the self-cleavage came to 1.22.
As for G21A G27U, the self-cleavage worked out at 1.35.
Regarding G21A G40A, the self-cleavage was 0.29.
As for G21A G40U, the self-cleavage was 0.19.
The result for G21A G40C reads 0.22; that for G19U U32A, 0.09; that for G19U U32C, 0.4.
In the case of G19U U32G it was 0.1; in that of U20A G35U, 0.08; in that of U20A G35A, 0.1.
Regarding U20A G35C, the self-cleavage turned out to be 0.05.
In the case of U20G U43A it was 0.03.
The result for U20G U43C reads 0.04.
The result for U20G U43G reads 0.02; that for G21A C23G, 0.78.
For G21A C23U, the self-cleavage came out at 1.02.
Consider G21A C23A, for which the self-cleavage was 1.07.
On to U20A G22C, for which the self-cleavage was 0.38.
As for U20A G22U, the self-cleavage stood at 0.91.
The result for U20A G22A reads 0.55.
For the variant U20G U38A, the self-cleavage came out at 0.2.
The result for U20G U38G reads 0.02.
The result for U20G U38C reads 0.26; that for U20G A41G, 0.19; that for U20G A41C, 0.02.
Consider U20G A41U, for which the self-cleavage amounted to 0.42.
In the case of U20G G44C it was 0.26; in that of U20G G44A, 0.25; in that of U20G G44U, 0.23.
As for G21A A25U, the self-cleavage was found to be 1.75.
Take G21A A25G: the self-cleavage was 1.4.
For G21A A25C, the self-cleavage amounted to 2.37.
In the case of G21A U43G it was 0.14; in that of G21A U43C, 0.18; in that of G21A U43A, 0.17.
G21A C37U: the self-cleavage came to 0.07.
With G21A C37A, the self-cleavage was 0.08.
Turning to G21A C37G, the self-cleavage turned out to be 0.04.
The result for U20C C23U reads 0.61; that for U20C C23A, 0.49.
In the case of U20C C23G it was 0.44; in that of G21C A39C, 0.07; in that of U20G G33C, 0.06.
For U20G G33U, the self-cleavage came out at 0.08.
As for U20G G33A, the self-cleavage was 0.09.
As for U20A, the self-cleavage worked out at 0.68.
Regarding U20G, the self-cleavage is 0.69.
In the case of U20C it was 0.66; in that of U20A A25C, 0.61.
The result for U20A A25G reads 0.26; that for U20A A25U, 0.77.
For the variant U20G A26C, the self-cleavage was 0.47.
The result for U20G A26G reads 0.43.
Consider U20G A26U, for which the self-cleavage was found to be 0.3.
As for U20C A24C, the self-cleavage was 0.31.
For U20C A24U, the self-cleavage was found to be 0.67.
Regarding U20C A24G, the self-cleavage came out at 0.44.
In the case of U20C C31A it was 0.27.
On to U20C C31G, for which the self-cleavage amounted to 0.07.
In the case of U20C C31U it was 0.39.

Source of the values: the RNAGym collection of RNA variant scans (doi:10.7554/elife.90254).
